Assay results published in publication PMC9616490.

How the values were obtained:
Assay in all cases: cryo-EM structure
Settings in all cases: remark: other sources report otherwise
[1] = molecular target: T1, human Na-K-2Cl cotransporter-1 (hNKCC1), full-length wild type (human), P55011
T1 chain: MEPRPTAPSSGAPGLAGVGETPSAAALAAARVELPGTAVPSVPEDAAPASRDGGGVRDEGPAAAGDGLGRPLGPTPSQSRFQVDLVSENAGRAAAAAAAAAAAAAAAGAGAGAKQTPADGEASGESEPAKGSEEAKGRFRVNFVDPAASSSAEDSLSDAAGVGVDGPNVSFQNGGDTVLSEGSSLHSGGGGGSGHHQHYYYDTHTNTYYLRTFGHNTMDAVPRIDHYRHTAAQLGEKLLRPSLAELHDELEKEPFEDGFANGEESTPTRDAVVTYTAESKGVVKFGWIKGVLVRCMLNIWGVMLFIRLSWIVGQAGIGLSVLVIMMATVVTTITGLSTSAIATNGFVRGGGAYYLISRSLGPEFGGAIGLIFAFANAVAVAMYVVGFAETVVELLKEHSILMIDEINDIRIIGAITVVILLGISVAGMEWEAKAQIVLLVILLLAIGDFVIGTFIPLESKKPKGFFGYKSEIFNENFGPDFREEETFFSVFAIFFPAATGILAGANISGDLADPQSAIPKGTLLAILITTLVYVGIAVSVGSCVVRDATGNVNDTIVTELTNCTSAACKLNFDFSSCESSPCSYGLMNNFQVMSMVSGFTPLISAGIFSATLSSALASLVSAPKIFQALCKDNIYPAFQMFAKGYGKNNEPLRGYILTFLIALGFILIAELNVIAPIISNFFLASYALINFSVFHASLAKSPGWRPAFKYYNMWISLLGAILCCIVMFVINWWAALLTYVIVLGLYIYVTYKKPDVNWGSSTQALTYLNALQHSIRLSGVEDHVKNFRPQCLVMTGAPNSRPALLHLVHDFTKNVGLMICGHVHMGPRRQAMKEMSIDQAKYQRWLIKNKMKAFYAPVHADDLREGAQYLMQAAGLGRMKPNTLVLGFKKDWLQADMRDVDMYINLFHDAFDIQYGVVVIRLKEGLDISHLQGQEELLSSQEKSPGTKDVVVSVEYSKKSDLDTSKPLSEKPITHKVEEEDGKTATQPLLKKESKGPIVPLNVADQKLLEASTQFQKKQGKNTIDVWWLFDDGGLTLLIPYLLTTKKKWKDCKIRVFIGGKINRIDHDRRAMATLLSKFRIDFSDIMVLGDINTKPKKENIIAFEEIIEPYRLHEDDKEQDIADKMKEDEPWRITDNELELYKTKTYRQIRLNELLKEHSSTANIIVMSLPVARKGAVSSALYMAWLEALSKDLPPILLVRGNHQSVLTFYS

[2] = molecular target: T1, human Na-K-2Cl cotransporter-1 …
[3] = molecular target: T1, human Na-K-2Cl cotransporter-1 …

Measured: stoichiometry N

B1: human Na-K-2Cl cotransporter-1 (hNKCC1), full-length wild type, P55011 1-1212 (natural protein)
chain: MEPRPTAPSSGAPGLAGVGETPSAAALAAARVELPGTAVPSVPEDAAPASRDGGGVRDEGPAAAGDGLGRPLGPTPSQSRFQVDLVSENAGRAAAAAAAAAAAAAAAGAGAGAKQTPADGEASGESEPAKGSEEAKGRFRVNFVDPAASSSAEDSLSDAAGVGVDGPNVSFQNGGDTVLSEGSSLHSGGGGGSGHHQHYYYDTHTNTYYLRTFGHNTMDAVPRIDHYRHTAAQLGEKLLRPSLAELHDELEKEPFEDGFANGEESTPTRDAVVTYTAESKGVVKFGWIKGVLVRCMLNIWGVMLFIRLSWIVGQAGIGLSVLVIMMATVVTTITGLSTSAIATNGFVRGGGAYYLISRSLGPEFGGAIGLIFAFANAVAVAMYVVGFAETVVELLKEHSILMIDEINDIRIIGAITVVILLGISVAGMEWEAKAQIVLLVILLLAIGDFVIGTFIPLESKKPKGFFGYKSEIFNENFGPDFREEETFFSVFAIFFPAATGILAGANISGDLADPQSAIPKGTLLAILITTLVYVGIAVSVGSCVVRDATGNVNDTIVTELTNCTSAACKLNFDFSSCESSPCSYGLMNNFQVMSMVSGFTPLISAGIFSATLSSALASLVSAPKIFQALCKDNIYPAFQMFAKGYGKNNEPLRGYILTFLIALGFILIAELNVIAPIISNFFLASYALINFSVFHASLAKSPGWRPAFKYYNMWISLLGAILCCIVMFVINWWAALLTYVIVLGLYIYVTYKKPDVNWGSSTQALTYLNALQHSIRLSGVEDHVKNFRPQCLVMTGAPNSRPALLHLVHDFTKNVGLMICGHVHMGPRRQAMKEMSIDQAKYQRWLIKNKMKAFYAPVHADDLREGAQYLMQAAGLGRMKPNTLVLGFKKDWLQADMRDVDMYINLFHDAFDIQYGVVVIRLKEGLDISHLQGQEELLSSQEKSPGTKDVVVSVEYSKKSDLDTSKPLSEKPITHKVEEEDGKTATQPLLKKESKGPIVPLNVADQKLLEASTQFQKKQGKNTIDVWWLFDDGGLTLLIPYLLTTKKKWKDCKIRVFIGGKINRIDHDRRAMATLLSKFRIDFSDIMVLGDINTKPKKENIIAFEEIIEPYRLHEDDKEQDIADKMKEDEPWRITDNELELYKTKTYRQIRLNELLKEHSSTANIIVMSLPVARKGAVSSALYMAWLEALSKDLPPILLVRGNHQSVLTFYS
2: [1] | [2] | [3]
